# B1: EVA4: parental tick class A evasin, mature peptide residues 24–127 with N-terminal His-tag, expressed in HEK293F cells (protein)
# chain: EVPQMTSSSAPDLEEEDDYTAYAPLTCYFTNSTLGLLAPPNCSVLCNSTTTWFNETSPNNASCLLTVDFLTQDAILQENQPYNCSVGHCDNGTCAGPPRHAQCW
# modifications: left off: 8xHis, N-terminal, state not stated
# notes: parental tick class A evasin, mature peptide residues 24–127 with N-terminal His-tag, expressed in HEK293F cells
# Experiments:
# CXCL6 = biological target: T1, CXCL6 (Homo sapiens, UniProt P80162); experiment: CXCL6-induced Jurkat CXCR1 (J:CXCR1) migration (chemotaxis); format: cell-based; settings: HD2, HD2SCR and EVA4 at 10 μM, chemokine at EC80, J:CXCR1 cells, n = 3 biological replicates, Dunnett's test
# T1 construct: purchased Peprotech 300-41
# Experimental: For THP1 migration assays, 300000 cells/well were added to the top chamber of a 5-µm 96-well Transwell insert (3387, Corning) in 50 µL of cell migration media (RPMI-1640 (R0883, Sigma), 0.5% FBS (F9665, Sigma), 4 mM L-Glutamine (G7513, Sigma), 0.05% DMSO (D4540, Sigma)). The bottom chamber contained 150 µL of migration media with chemokine and peptide added. Cells were migrated at 37 °C in 5% CO2 for 4 h.
# J:CXCR1 migration assays were performed exactly as for THP1 assays except that a 3-µm Transwell insert (3385, Corning) was used.
# Following the migration assay the migration plate was shaken at 850 RPM for 10 min, and media from bottom plate transferred to a round-bottomed 96 well plate (353910, Falcon). Cell counts were determined using an Atune NxT Flow Cytometer Plate Reader with Cytkick autosampler (ThermoFisher), based on cell size parameters FSC-H/SSC-H, and a previously defined gate setting for each cell type (Supplementary Fig. 11). […] Statistical significances between control and experimental groups was evaluated using Dunnett’s test[73]. […] EC80 was calculated by fitting a chemokine dose-response curve with a 3-parameter log-logistic model (fixing the top to 100%) using the function “drm” in R-package drc[74]. IC50 was calculated by fitting an inhibitor response curve with a 4-parameter log-logistic model using the function “drm” in R-package drc[74]. […]
# CXCL10 = biological target: T2, CXCL10 (Homo sapiens, UniProt P02778); experiment: CXCL10-induced activated T cell (ATC) migration (chemotaxis); format: cell-based; settings: HD2, HD2SCR and EVA4 at 20 μM (Fig. 6i), activated T cells, n = 3 biological replicates
# T2 construct: purchased Peprotech 300-12
# Experimental: For activated-T cell migration assays, 100000 cells/well were added to the top chamber of a 3-µm Transwell insert (3385, Corning) in 50 µL of migration media (HBSS (14025-092, Life Technologies), 0.1% protease free bovine serum albumin (A7030, Sigma), 0.05% DMSO (D4540, Sigma)). The bottom chamber contained 150 µL of migration media with chemokine and peptide added. Cells were migrated at 37 °C in 5% CO2 for 2 h.
# Following the migration assay the migration plate was shaken at 850 RPM for 10 min, and media from bottom plate transferred to a round-bottomed 96 well plate (353910, Falcon). Cell counts were determined using an Atune NxT Flow Cytometer Plate Reader with Cytkick autosampler (ThermoFisher), based on cell size parameters FSC-H/SSC-H, and a previously defined gate setting for each cell type (Supplementary Fig. 11). All experiments were performed as three technical and three biological replicates. Statistical significances between control and experimental groups was evaluated using Dunnett’s test[73]. IC50 experiments were performed at the EC80 dose of chemokine. EC80 was calculated by fitting a chemokine dose-response curve with a 3-parameter log-logistic model (fixing the top to 100%) using the function “drm” in R-package drc[74]. IC50 was calculated by fitting an inhibitor response curve with a 4-parameter log-logistic model using the function “drm” in R-package drc[74]. […]
molecule,measurement,setting,value
B1,effect on chemokine-induced cell migration,CXCL6,did not inhibit
same,effect on chemokine-induced cell migration,CXCL10,did not inhibit

# Source: paper PMC10505172, “Discovery and pharmacophoric characterization of chemokine network inhibitors using phage-display, saturation mutagenesis and computational modelling” (Nature Communications, 2023)
